From patent publication US20180128830A1, “DETECTION OF HUMAN CYTOMEGALOVIRUS IN BREAST CANCER” (priority 2015, published 2018)
Where “and” joins values, the source holds several entries; their conditions need not be identical. Identical values can stand only once.

Experiments:
MDA-MB-231 cells = assay: Transcriptional profiling, Human Tumor Metastasis RT2 Profiler PCR Array; assay type: cell-based; conditions: 100 ng/mL, 5 hrs
Description: RNA was harvested from 10×10^6 MDA-MB-231 cells that were mock treated or treated with 100 ng/mL cmvIL-10 or hIL-10 for 5 hrs using the RNeasy Midi Kit and RNAse-Free DNase set (Qiagen, Valencia, Calif.). From the isolated RNA, cDNA was prepared using the RT^2 First Strand Kit (SA Biosciences, Frederick, Md.) and subsequently loaded into a 96-well breast cancer metastasis profiler PCR array (PAHS-028ZD) with system RT^2 SYBR Green Mastermix (SA Biosciences). The plates were run using the CFX96 Real-Time system cycler (BioRad, Hercules, Calif.) with the following amplification program: 95° C. for 10 min, 95° C. for […] with a slow ramp rate for 1.0 c/sec and 60° C. for 1 min. The data from three biological replicates for each treatment was analyzed by the ΔΔCT method according to manufacturer's instructions using the RT^2 profiler PCR array data analysis program located on the SABiosciences web portal and is reported as fold change relative to control.

uPAR = uPAR ELISA on culture supernatants; assay type: cell-based, human; conditions: 10 ng/ml
Description: DuoSet ELISA kits (R&D Systems) were used to quantify uPAR, PAI-1, and MMP-3. For uPAR and PAI-1 measurement, MDA cells were seeded in triplicate in 96-well plate at 5.0×10^4 cell/mL density with complete L-15 media and treated with 10 ng/mL of either cmvIL-10 or hIL-10 for the indicated times and supernatants were collected daily. The ELISA was carried out on supernatants according to manufacturer's instructions using and following the addition of substrate and stop solution, absorbance of the plate was measured at 450 nm using a Dynex Opsys MR microplate reader. Sample concentrations were interpolated from a standard curve using linear regression analysis. For cell-associated MMP-3, MDA cells were seeded in 96-well plates and treated with cmvIL-10 as above. Cells were treated with cell lysis buffer (150 mM NaCl, 20 mM HEPES, 0.5% Triton-X-100, 1.0 mM NaOV4, 1.0 mM EDTA, 0.1% NaN3) supplemented with 1× protease inhibitors (Calbiochem, EMD Chemicals, San Diego Calif.) and were collected daily for the indicated time points. The lysates were evaluated for MMP-3 according to the manufacturer's instructions (R&D Systems).

B1: cmvIL-10 (protein)
chain: ATTTTIKNTKPQCRPEDYATRLQDLRVTFHRVKPTLQREDDYSVWLDGTVVKGCWGCSVMDWLLRRYLEIVFPAGDHVYPGLKTELHSMRSTLESIYKDMRQCPLLGCGDKSVISRLSQEAERKSDNGTRKGLSELDTLFSRLEEYLHSRK
B1 was tested, and the “Fold Change vs. Mock, KISS1” value (MDA-MB-231 cells; KISS1 mRNA) was 1.1394 fold, the “Fold Change vs. Mock, KRAS” value (MDA-MB-231 cells; KRAS mRNA) was 1.0304 fold and the “Fold Change vs. Mock, MCAM” value (MDA-MB-231 cells; MCAM mRNA) was 0.768 fold and 0.7688 fold. The “MCAM fold change expressed as negative fold (down-regulation)” value (MDA-MB-231 cells; MCAM mRNA) was −1.32 fold, the “Fold Change vs. Mock, MDM2” value (MDA-MB-231 cells; MDM2 mRNA) was 0.9531 fold and the “Fold Change vs. Mock, MET” value (MDA-MB-231 cells; MET mRNA) was 0.9833 fold. For the same molecule, the “Fold Change vs. Mock, METAP2” value (MDA-MB-231 cells; METAP2 mRNA) was 1.1295 fold, the “Fold Change vs. Mock, MGAT5” value (MDA-MB-231 cells; MGAT5 mRNA) was 1.1795 fold and the “Fold Change vs. Mock, MMP2” value (MDA-MB-231 cells; MMP2 mRNA) was −1.1101 fold. The “Fold Change vs. Mock, MMP3” value (MDA-MB-231 cells; MMP3 mRNA) was 2.75 fold and 2.7478 fold, the “Fold Change vs. Mock, MMP7” value (MDA-MB-231 cells; MMP7 mRNA) was 0.9416 fold and the “Fold Change vs. Mock, MMP9” value (MDA-MB-231 cells; MMP9 mRNA) was 1.0233 fold. For the same molecule, the “Fold Change vs. Mock, MMP10” value (MDA-MB-231 cells; MMP10 mRNA) was 0.5980 fold, the “Fold Change vs. Mock, MMP11” value (MDA-MB-231 cells; MMP11 mRNA) was 0.7026 fold and the “Fold Change vs. Mock, MMP13” value (MDA-MB-231 cells; MMP13 mRNA) was 0.8127 fold. For the same molecule, the “Fold Change vs. Mock, MTA1” value (MDA-MB-231 cells; MTA1 mRNA) was 0.7388 fold, the “MTSS1 fold change expressed as negative fold (down-regulation)” value (MDA-MB-231 cells; MTSS1 mRNA) was −3.28 fold and the “Fold Change vs. Mock, MYC” value (MDA-MB-231 cells; MYC mRNA) was 0.8113 fold. For the same molecule, the “Fold Change vs. Mock, MYCL1” value (MDA-MB-231 cells; MYCL1 mRNA) was 0.5260 fold, the “Fold Change vs. Mock, NF2” value (MDA-MB-231 cells; NF2 mRNA) was 1.0742 fold and the “Fold Change vs. Mock, NME1” value (MDA-MB-231 cells; NME1 mRNA) was 1.0358 fold. The “Fold Change vs. Mock, NME4” value (MDA-MB-231 cells; NME4 mRNA) was 0.8226 fold, the “Fold Change vs. Mock, NR4A3” value (MDA-MB-231 cells; NR4A3 mRNA) was 0.5389 fold and the “Fold Change vs. Mock, PLAUR” value (MDA-MB-231 cells; PLAUR (uPAR) mRNA) was 1.59 fold and 1.5891 fold. The “Fold Change vs. Mock, PNN” value (MDA-MB-231 cells; PNN mRNA) was 1.3088 fold, the “Fold Change vs. Mock, PTEN” value (MDA-MB-231 cells; PTEN mRNA) was 0.7809 fold and the “Fold Change vs. Mock, RB1” value (MDA-MB-231 cells; RB1 mRNA) was 0.9548 fold. The “Fold Change vs. Mock, RORB” value (MDA-MB-231 cells; RORB mRNA) was 0.6953 fold, the “Fold Change vs. Mock, RPLP0” value (MDA-MB-231 cells; RPLP0 mRNA) was 1.0376 fold and the “Fold Change vs. Mock, RPSA” value (MDA-MB-231 cells; RPSA mRNA) was 0.9631 fold. For the same molecule, the “Fold Change vs. Mock, SERPINE1” value (MDA-MB-231 cells; SERPINE1 (PAI-1) mRNA) was 2.68 fold and 2.6818 fold, the “Fold Change vs. Mock, SET” value (MDA-MB-231 cells; SET mRNA) was 0.9664 fold and the “Fold Change vs. Mock, SMAD2” value (MDA-MB-231 cells; SMAD2 mRNA) was 0.6869 fold. For the same molecule, the “Fold Change vs. Mock, SMAD4” value (MDA-MB-231 cells; SMAD4 mRNA) was 0.8384 fold, the “Fold Change vs. Mock, SRC” value (MDA-MB-231 cells; SRC mRNA) was 0.5297 fold and the “Fold Change vs. Mock, SSTR2” value (MDA-MB-231 cells; SSTR2 mRNA) was 0.5556 fold. For the same molecule, the “Fold Change vs. Mock, SYK” value (MDA-MB-231 cells; SYK mRNA) was 0.8590 fold, the “Fold Change vs. Mock, TCF20” value (MDA-MB-231 cells; TCF20 mRNA) was 0.7823 fold and the “Fold Change vs. Mock, TGEB1” value (MDA-MB-231 cells; TGEB1 (Transforming growth factor, beta 1) mRNA) was 0.7173 fold. The “Fold Change vs. Mock, TIMP2” value (MDA-MB-231 cells; TIMP2 mRNA) was 0.7596 fold, the “Fold Change vs. Mock, TIMP3” value (MDA-MB-231 cells; TIMP3 mRNA) was 0.8155 fold and the “Fold Change vs. Mock, TIMP4” value (MDA-MB-231 cells; TIMP4 mRNA) was 0.7324 fold. For the same molecule, the “Fold Change vs. Mock, TNFSF10” value (MDA-MB-231 cells; TNFSF10 mRNA) was 0.8169 fold, the “Fold Change vs. Mock, TP53” value (MDA-MB-231 cells; TP53 mRNA) was 0.6180 fold and the “Fold Change vs. Mock, TRPM1” value (MDA-MB-231 cells; TRPM1 mRNA) was 0.8113 fold. The “Fold Change vs. Mock, TSHR” value (MDA-MB-231 cells; TSHR mRNA) was 0.8113 fold, the “Fold Change vs. Mock, VEGFA” value (MDA-MB-231 cells; VEGFA mRNA) was 0.554 fold and 0.5541 fold and the “VEGFA fold change expressed as negative fold (down-regulation)” value (MDA-MB-231 cells; VEGFA mRNA) was −1.80 fold. The uPAR protein levels (uPAR) was “elevated”.
